# KR20190132616A (dated 2019)
# B1: SAIT-ANG2-AB-m10D6 (antibody, V domains shown)
# VH: DVQLQESGPGLVKPSQSLSLTCTVTGYSITSDYAWNWIRQFPGNKLEWMGYINYSGNTDYNPSLKSRSSITRDTSKNQFFLQLNSVTTGDTATYYCARGNFEGAMDYWGQGTSVTVSS
# VL: SIVMTQTPKFLLVSAGDRVTITCKASQSVSNDVAWYQQKPGQSPKLLIYYASNRYPGVPDRFTGSGYGTDFTFTISTVQAEDLAVYFCQQDYSSPWTFGGGTKLEIK
# notes: also called 10D6 항체; 10D6 anti-Ang2 항체
# B2: Ang2 단백질(R&D systems) (ligand)
# chain: YNNFRKSMDSIGKKQYQVQHGSCSYTFLLPEMDNCRSSSSPYVSNAVQRDAPLEYDDSVQRLQVLENIMENNTQWLMKLENYIQDNMKKEMVEIQQNAVQNQTAVMIEIGTNLLNQTAEQTRKLTDVEAQVLNQTTRLELQLLEHSLSTNKLEKQILDQTSEINKLQDKNSFLEKKVLAMEDKHIIQLQSIKEEKDQLQVLVSKQNSIIEELEKKIVTATVNNSVLQKQQHDLMETVNNLLTMMSTSNSAKDPTVAKEEQISFRDCAEVFKSGHTTNGIYTLTFPNSTEEIKAYCDMEAGGGGWTIIQRREDGSVDFQRTWKEYKVGFGNPSGEYWLGNEFVSQLTNQQRYVLKIHLKDWEGNEAYSLYEHFYLSSEELNYRIHLKGLTGTAGKISSISQPGNDFSTKDGDNDKCICKCSQMLTGGWWFDACGPSNLNGMYYPQRQNTNKFNGIKWYYWKGSGYSLKATTMMIRPADF
# notes: also called 인간 Ang2 단백질 (R&D systems; 623-AN-025/CF)
# Experiments:
# [1] = biological target: T1, 재조합 hAng-2 (C-His, R&D Systems) (human, UniProt O15123 19-496); assay: SPR, BIAcore T100; hAng-2 (C-His) captured by anti-His antibody on CM5 chip, antibody flowed from 100 nM in 2-fold dilutions
# T1 construct: Bought protein; also called 인간 Ang-2 단백질
# T1 sequence: B2 chain
# [2] = biological target: Mutant Ang2 K468 (alanine), FLAG-tagged (human) (UniProt O15123); assay: ELISA, antibody coated (1000nM), FLAG-Ang2 mutant 250ng, anti-FLAG-HRP, OD450 against native Ang2
# [3] = biological target: Mutant Ang2 N421 (alanine), FLAG-tagged (human) (UniProt O15123); assay: as above
# [4] = biological target: Mutant Ang2 D448 (alanine), FLAG-tagged (human) (UniProt O15123); assay: as above
# [5] = biological target: Mutant Ang2 Y460 (alanine), FLAG-tagged (human) (UniProt O15123); assay: as above
# [6] = biological target: Mutant Ang2 Q418 (alanine), FLAG-tagged (human) (UniProt O15123); assay: as above
# [7] = biological target: Mutant Ang2 N467 (alanine), FLAG-tagged (human) (UniProt O15123); assay: as above
# [8] = biological target: Mutant Ang2 I434 (alanine), FLAG-tagged (human) (UniProt O15123); assay: as above
# [9] = biological target: Mutant Ang2 S417 (alanine), FLAG-tagged (human) (UniProt O15123); assay: as above
# [10] = biological target: Mutant Ang2 P452 (alanine), FLAG-tagged (human) (UniProt O15123); assay: as above
# [11] = biological target: Mutant Ang2 F469 (alanine), FLAG-tagged (human) (UniProt O15123); assay: as above
# [12] = biological target: Mutant Ang2 P419 (alanine), FLAG-tagged (human) (UniProt O15123); assay: as above
# [13] = biological target: Mutant Ang2 A449 (alanine), FLAG-tagged (human) (UniProt O15123); assay: as above
# [14] = biological target: T2, hTie2-Fc (R&D Systems) (human, UniProt Q02763 23-745); assay: complex ELISA: Tie2-Fc coated, Ang2 0.25 ug/ml and 10D6 2 ug/ml added, anti-mouse IgG-HRP
# T2 construct: Bought fusion protein, coated on the plate; also called hTie-2/Fc 융합 단백질; not shown: Fc of human IgG1
# T2 sequence (Q02763 23-745 limits assumed): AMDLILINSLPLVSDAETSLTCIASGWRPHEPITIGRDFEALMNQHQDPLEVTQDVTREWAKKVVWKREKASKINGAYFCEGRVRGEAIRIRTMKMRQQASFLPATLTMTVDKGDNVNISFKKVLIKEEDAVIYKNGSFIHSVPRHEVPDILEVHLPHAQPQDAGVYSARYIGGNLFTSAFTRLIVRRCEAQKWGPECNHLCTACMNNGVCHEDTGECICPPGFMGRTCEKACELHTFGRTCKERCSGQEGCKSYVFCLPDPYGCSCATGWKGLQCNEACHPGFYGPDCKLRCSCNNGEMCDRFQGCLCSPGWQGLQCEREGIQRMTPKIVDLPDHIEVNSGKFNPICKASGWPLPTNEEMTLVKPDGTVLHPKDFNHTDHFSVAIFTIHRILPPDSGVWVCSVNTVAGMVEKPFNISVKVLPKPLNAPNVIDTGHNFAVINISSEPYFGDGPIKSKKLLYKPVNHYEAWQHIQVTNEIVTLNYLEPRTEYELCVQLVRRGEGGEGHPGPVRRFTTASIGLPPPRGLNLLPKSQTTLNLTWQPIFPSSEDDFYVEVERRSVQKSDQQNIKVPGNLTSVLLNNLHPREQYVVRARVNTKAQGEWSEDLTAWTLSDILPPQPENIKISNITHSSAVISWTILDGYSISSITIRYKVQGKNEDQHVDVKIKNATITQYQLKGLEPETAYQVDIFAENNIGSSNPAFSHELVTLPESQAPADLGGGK
Binder,Kd [1] [nM],native Ang2와의 결합력에 대한 Mutant Ang2 와의 결합력(%) [2] [%],native Ang2와의 결합력에 대한 Mutant Ang2 와의 결합력(%) [3] [%],native Ang2와의 결합력에 대한 Mutant Ang2 와의 결합력(%) [4] [%],native Ang2와의 결합력에 대한 Mutant Ang2 와의 결합력(%) [5] [%],native Ang2와의 결합력에 대한 Mutant Ang2 와의 결합력(%) [6] [%],native Ang2와의 결합력에 대한 Mutant Ang2 와의 결합력(%) [7] [%],native Ang2와의 결합력에 대한 Mutant Ang2 와의 결합력(%) [8] [%],native Ang2와의 결합력에 대한 Mutant Ang2 와의 결합력(%) [9] [%],native Ang2와의 결합력에 대한 Mutant Ang2 와의 결합력(%) [10] [%],native Ang2와의 결합력에 대한 Mutant Ang2 와의 결합력(%) [11] [%],native Ang2와의 결합력에 대한 Mutant Ang2 와의 결합력(%) [12] [%],native Ang2와의 결합력에 대한 Mutant Ang2 와의 결합력(%) [13] [%],binding result [14]
B1,8,110,109,105,103,38.9,107,109,101,102,109,41.1,97.9,
B2,,,,,,,,,,,,,,binds
